Data published in article PMC12759081, “S-phase PARylation of microprotein RSMC enhances the function of Sororin in sister chromatid cohesion” (The EMBO Journal, 2025).

Legend:
Settings in all cases: both partners purified
[1] = target: T1, 6×His-3×Flag-PDS5B, Cy5-labelled (UniProt Q9NTI5 1-1447, Cy5 label); test: MST; competitive: 34 nM Cy5-PDS5B and Wapl dilutions combined 10 min at RT, then Sororin and RSMC added (17 nM each, 1:1 molar ratio); 25 °C, 50 mM Tris pH 7.4, 150 mM NaCl, 10% glycerol, 0.05% Tween-20
T1 construct: PDS5B, cDNA in pFastBac1; primers run from the start codon to the stop codon; also called His-Flag-PDS5B; Cy5-labeled PDS5B; source: SF9 cells (baculovirus), purified (Ni2+ Sepharose); not shown: His6, N-terminal, kept; 3×Flag, N-terminal, kept
T1 sequence (looked up): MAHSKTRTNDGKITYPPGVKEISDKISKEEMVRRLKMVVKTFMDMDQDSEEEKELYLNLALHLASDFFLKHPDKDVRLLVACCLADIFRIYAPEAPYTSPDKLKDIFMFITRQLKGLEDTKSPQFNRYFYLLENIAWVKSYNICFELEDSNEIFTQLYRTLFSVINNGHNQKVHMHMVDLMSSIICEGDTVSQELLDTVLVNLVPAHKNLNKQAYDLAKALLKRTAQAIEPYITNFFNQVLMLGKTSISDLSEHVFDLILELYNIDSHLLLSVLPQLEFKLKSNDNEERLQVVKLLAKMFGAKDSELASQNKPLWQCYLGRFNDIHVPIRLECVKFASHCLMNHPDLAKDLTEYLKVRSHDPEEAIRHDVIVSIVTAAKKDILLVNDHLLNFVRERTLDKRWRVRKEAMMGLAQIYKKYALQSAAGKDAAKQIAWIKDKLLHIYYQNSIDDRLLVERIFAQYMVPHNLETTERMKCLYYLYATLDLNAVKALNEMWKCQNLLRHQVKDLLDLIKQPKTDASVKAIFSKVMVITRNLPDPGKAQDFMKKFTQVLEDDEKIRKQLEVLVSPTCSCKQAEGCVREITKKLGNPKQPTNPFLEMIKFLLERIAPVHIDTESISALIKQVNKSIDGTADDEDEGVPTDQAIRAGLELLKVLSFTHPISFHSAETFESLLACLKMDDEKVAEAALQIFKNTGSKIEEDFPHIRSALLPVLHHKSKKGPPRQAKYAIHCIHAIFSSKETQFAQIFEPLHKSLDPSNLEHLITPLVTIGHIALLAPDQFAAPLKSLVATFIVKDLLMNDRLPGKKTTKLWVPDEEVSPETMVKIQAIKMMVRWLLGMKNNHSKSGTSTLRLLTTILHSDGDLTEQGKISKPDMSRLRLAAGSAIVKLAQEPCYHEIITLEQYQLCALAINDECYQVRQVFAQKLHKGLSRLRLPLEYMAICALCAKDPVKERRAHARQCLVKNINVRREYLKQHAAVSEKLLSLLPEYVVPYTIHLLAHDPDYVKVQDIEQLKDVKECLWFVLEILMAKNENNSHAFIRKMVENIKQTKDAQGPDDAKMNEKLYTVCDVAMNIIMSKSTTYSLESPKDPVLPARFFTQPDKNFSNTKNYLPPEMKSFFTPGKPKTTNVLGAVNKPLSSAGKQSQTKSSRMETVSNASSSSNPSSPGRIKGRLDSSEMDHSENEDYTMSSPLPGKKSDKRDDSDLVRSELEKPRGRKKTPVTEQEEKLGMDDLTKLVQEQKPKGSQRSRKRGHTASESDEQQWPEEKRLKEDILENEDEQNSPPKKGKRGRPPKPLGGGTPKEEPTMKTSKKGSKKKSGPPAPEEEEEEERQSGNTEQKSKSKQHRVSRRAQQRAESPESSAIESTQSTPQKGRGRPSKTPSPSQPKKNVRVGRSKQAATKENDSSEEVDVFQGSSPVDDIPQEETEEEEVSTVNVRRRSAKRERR

[2] = target: T1, 6×His-3×Flag-PDS5B, Cy5-labelled; test: MST; competitive: 34 nM Cy5-PDS5B and Wapl dilutions combined 10 min at RT, then 17 nM Sororin added; 25 °C, 50 mM Tris pH 7.4, 150 mM NaCl, 10% glycerol, 0.05% Tween-20
[3] = target: T1, 6×His-3×Flag-PDS5B, Cy5-labelled; test: MST; Cy5-labelled PDS5B at 34 nM, partner in twofold dilutions; 25 °C, 50 mM Tris pH 7.4, 150 mM NaCl, 10% glycerol, 0.05% Tween-20; Monolith NT.115

B1: Wapl (natural protein, UniProt Q7Z5K2 1-1190, looked up)
chain: MTSRFGKTYSRKGGNGSSKFDEVFSNKRTTLSTKWGETTFMAKLGQKRPNFKPDIQEIPKKPKVEEESTGDPFGFDSDDESLPVSSKNLAQVKCSSYSESSEAAQLEEVTSVLEANSKISHVVVEDTVVSDKCFPLEDTLLGKEKSTNRIVEDDASISSCNKLITSDKVENFHEEHEKNSHHIHKNADDSTKKPNAETTVASEIKETNDTWNSQFGKRPESPSEISPIKGSVRTGLFEWDNDFEDIRSEDCILSLDSDPLLEMKDDDFKNRLENLNEAIEEDIVQSVLRPTNCRTYCRANKTKSSQGASNFDKLMDGTSQALAKANSESSKDGLNQAKKGGVSCGTSFRGTVGRTRDYTVLHPSCLSVCNVTIQDTMERSMDEFTASTPADLGEAGRLRKKADIATSKTTTRFRPSNTKSKKDVKLEFFGFEDHETGGDEGGSGSSNYKIKYFGFDDLSESEDDEDDDCQVERKTSKKRTKTAPSPSLQPPPESNDNSQDSQSGTNNAENLDFTEDLPGVPESVKKPINKQGDKSKENTRKIFSGPKRSPTKAVYNARHWNHPDSEELPGPPVVKPQSVTVRLSSKEPNQKDDGVFKAPAPPSKVIKTVTIPTQPYQDIVTALKCRREDKELYTVVQHVKHFNDVVEFGENQEFTDDIEYLLSGLKSTQPLNTRCLSVISLATKCAMPSFRMHLRAHGMVAMVFKTLDDSQHHQNLSLCTAALMYILSRDRLNMDLDRASLDLMIRLLELEQDASSAKLLNEKDMNKIKEKIRRLCETVHNKHLDLENITTGHLAMETLLSLTSKRAGDWFKEELRLLGGLDHIVDKVKECVDHLSRDEDEEKLVASLWGAERCLRVLESVTVHNPENQSYLIAYKDSQLIVSSAKALQHCEELIQQYNRAEDSICLADSKPLPHQNVTNHVGKAVEDCMRAIIGVLLNLTNDNEWGSTKTGEQDGLIGTALNCVLQVPKYLPQEQRFDIRVLGLGLLINLVEYSARNRHCLVNMETSCSFDSSICSGEGDDSLRIGGQVHAVQALVQLFLERERAAQLAESKTDELIKDAPTTQHDKSGEWQETSGEIQWVSTEKTDGTEEKHKKEEEDEELDLNKALQHAGKHMEDCIVASYTALLLGCLCQESPINVTTVREYLPEGDFSIMTEMLKKFLSFMNLTCAVGTTGQKSISRVIEYLEHC
notes: Wapl, cohesin-releasing factor; primers run from the start codon to the stop codon
[1]
  Kd of Wapl-PDS5B with Sororin and RSMC added (1:1): 50.1 µM
[2]
  Kd of Wapl-PDS5B with Sororin added: 25.3 µM
[3]
  Kd: ~4.7 µM
